Each block holds one molecule with its values, some of them ahead of it.
Target: T1, OST1/SnRK2.6 (Arabidopsis thaliana, UniProt Q940H6)
T1 construct: made in house; host or cells: E. coli
T1 sequence (Q940H6 1-362): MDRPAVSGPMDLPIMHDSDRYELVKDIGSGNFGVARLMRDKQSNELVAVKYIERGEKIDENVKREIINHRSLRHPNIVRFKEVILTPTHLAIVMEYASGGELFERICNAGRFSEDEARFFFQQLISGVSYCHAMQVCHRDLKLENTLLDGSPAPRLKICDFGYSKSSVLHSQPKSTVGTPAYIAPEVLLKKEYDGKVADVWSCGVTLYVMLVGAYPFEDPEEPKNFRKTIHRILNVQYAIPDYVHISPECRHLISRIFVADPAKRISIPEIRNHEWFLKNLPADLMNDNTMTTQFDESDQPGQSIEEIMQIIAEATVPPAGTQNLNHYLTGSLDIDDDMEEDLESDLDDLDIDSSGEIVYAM
Assay: In vitro phosphorylation assay of CIAP-dephosphorylated GST-OST1/SnRK2.6 with other protein kinases
Assay type: biochemical
Details: GST-OST1/SnRK2.6 dephosphorylated by CIAP, [γ-32P]-ATP
Protocol: We investigated phosphorylation of purified recombinant GST-tagged OST1/SnRK2.6 protein kinase after dephosphorylation in vitro. To test whether OST1/SnRK2.6 could be re-activated by autophosphorylation, after dephosphorylation, the GST-OST1/SnRK2.6 protein bound on glutathione sepharose 4B resin was incubated with calf intestinal alkaline phosphatase (CIAP), and [γ-^32P]-ATP was added to the reaction after wash out of CIAP. […] Therefore, another unknown protein kinase may be required for reversible ABA signal transduction.
10 μg GST-OST1/SnRK2.6 proteins were bound to glutathione sepharose 4B beads and incubated with 30 U CIAP for 2 hr at room temperature. […]
a, Seeds of amiR-HsMYO wild-type (control line) or amiR-ax1117 mutant were sowed on ½ MS medium containing 2 μM ABA, or 0.02% EtOH as control, for germination assays. Representative images showing seed germination after 6 days. b, The percentage of seedlings showing green cotyledons was analyzed. […] In-gel kinase assays were performed using histone type III-S as a substrate. e, SnRK2 band intensities as shown in (d) were measured using ImageJ, n=3 experiments, error bars show +/−s.e.m. f, Recombinant GST-OST1/SnRK2.6 protein was dephosphorylated by alkaline phosphatase in vitro and used for in vitro phosphorylation assays after incubation with CPK6, CPK23 or MPK12 protein kinases. […]

- phosphorylation of OST1/SnRK2.6 after dephosphorylation: did not phosphorylate
B1: MPK12: MAP kinase of ABA signalling (protein)
chain: MSGESSSGSTEHCIKVVPTHGGRYVQYNVYGQLFEVSRKYVPPIRPIGRGACGIVCAAVNSVTGEKVAIKKIGNAFDNIIDAKRTLREIKLLRHMDHENVITIKDIVRPPQRDIFNDVYIVYELMDTDLQRILRSNQTLTSDQCRFLVYQLLRGLKYVHSANILHRDLRPSNVLLNSKNELKIGDFGLARTTSDTDFMTEYVVTRWYRAPELLLNCSEYTAAIDIWSVGCILGEIMTGQPLFPGKDYVHQLRLITELVGSPDNSSLGFLRSDNARRYVRQLPRYPKQQFAARFPKMPTTAIDLLERMLVFDPNRRISVDEALGHAYLSPHHDVAKEPVCSTPFSFDFEHPSCTEEHIKELIYKESVKFNPDH

- phosphorylation of OST1/SnRK2.6 after dephosphorylation: did not phosphorylate
B2: CPKδ: calcium-dependent protein kinase of ABA signalling (protein, UniProt Q38872 2-544, looked up)
Calcium-dependent protein …: GNSCRGSFKDKIYEGNHSRPEENSKSTTTTVSSVHSPTTDQDFSKQNTNPALVIPVKEPIMRRNVDNQSYYVLGHKTPNIRDLYTLSRKLGQGQFGTTYLCTDIATGVDYACKSISKRKLISKEDVEDVRREIQIMHHLAGHKNIVTIKGAYEDPLYVHIVMELCAGGELFDRIIHRGHYSERKAAELTKIIVGVVEACHSLGVMHRDLKPENFLLVNKDDDFSLKAIDFGLSVFFKPGQIFKDVVGSPYYVAPEVLLKHYGPEADVWTAGVILYILLSGVPPFWAETQQGIFDAVLKGYIDFDTDPWPVISDSAKDLIRKMLCSSPSERLTAHEVLRHPWICENGVAPDRALDPAVLSRLKQFSAMNKLKKMALKVIAESLSEEEIAGLRAMFEAMDTDNSGAITFDELKAGLRRYGSTLKDTEIRDLMEAADVDNSGTIDYSEFIAATIHLNKLEREEHLVSAFQYFDKDGSGYITIDELQQSCIEHGMTDVFLEDIIKEVDQDNDGRIDYEEFVAMMQKGNAGVGRRTMKNSLNISMRDV

— patent US20220154204A1, “ENHANCING DROUGHT, SALINITY AND COLD TOLERANCE IN PLANTS AND TREES” (The Regents of the University of California, priority 2019, published 2022)
